We go through 1 protein from patent US20070219354.

The target in the data set is T1, coumarin-CO-REVNFEVEFR
T1 chain: REVNFEVEFR

B1: BACE 1, soluble (transmembrane domain and cytoplasmic extension excluded) human protein produced in a baculovirus expression system (protein)
chain: TQHGIRLPLRSGLGGAPLGLRLPRETDEEPEEPGRRGSFVEMVDNLRGKSGQGYYVEMTVGSPPQTLNILVDTGSSNFAVGAAPHPFLHRYYQRQLSSTYRDLRKGVYVPYTQGKWEGELGTDLVSIPHGPNVTVRANIAAITESDKFFINGSNWEGILGLAYAEIARPDDSLEPFFDSLVKQTHVPNLFSLQLCGAGFPLNQSEVLASVGGSMIIGGIDHSLYTGSLWYTPIRREWYYEVIIVRVEINGQDLKMDCKEYNYDKSIVDSGTTNLRLPKKVFEAAVKSIKAASSTEKFPDGFWLGEQLVCWQAGTTPWNIFPVISLYLMGEVTNQSFRITILPQQYLRPVEDVATSQDDCYKFAISQSSTGTVMGAVIMEGFYVVFDRARKRIGFAVSACHVHDEFRTAAVEGPFVTLDMEDCGYNIPQTDESTLMT
Turning to B1, the “substrate processed (end point HPLC assay, 2 nM enzyme, 1.0 µM substrate, 30 min)” value was “less than 10% of substrate is processed by BACE 1”.
